Results on one sequence are retold here after article PMC8596624.

The target in the series is UKPV, spike on pseudotyped lentivirus, Alpha (SARS-CoV-2 (B.1.1.7, Alpha)) (UniProt P0DTC2). Description: dot blot.

In general, Kd refers to the equilibrium constant for the complex coming apart.

For the sequence “TTCCGGTTAATTTATGCTCTACCCGTCCACCTACCGGAATTTTTTTTTTTTTTTTTTTTTTTTTTTTTTACGGGTTTGGCGTCGGGCCTGGCGGGGGGATAGTGCGGT [DSA1N5 (T30 linker)]”, the Kd is 2.3 pM.
